Results: publication PMC5915145, “CNPY2 inhibits MYLIP-mediated AR protein degradation in prostate cancer cells” (Oncotarget, 2018)

Biological target: T1, recombinant UBE2D1-His (UniProt P51668 1-147)
T1 construct: UBE2D1 (UbcH5a), E2 ubiquitin conjugating enzyme; The methods of the pull-down call it UBE2D-His; also called UBE2D-His; source: E. coli, recombinant (pET29a (+) or pGEX4T1 vector); purification not described; not shown: His, C-terminal, kept
Assay: pull-down; GST-RING (8 ug) on Glutathione Sepharose beads with recombinant UBE2D-His (5 ug) or immunoprecipitated FLAG-CNPY2 (5 or 15 ug), 4 C, 30 min; 50 mM Tris-HCl pH 7.5, 150 mM NaCl, 5 mM EDTA, 0.5% NP40; immunoblotting
Settings: both partners purified

T1 sequence (P51668 whole entry): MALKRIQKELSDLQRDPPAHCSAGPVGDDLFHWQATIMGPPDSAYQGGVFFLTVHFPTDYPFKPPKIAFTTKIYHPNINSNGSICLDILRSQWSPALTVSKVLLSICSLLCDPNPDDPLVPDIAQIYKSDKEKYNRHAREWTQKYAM

B1: recombinant GST-fused RING domain of MYLIP (344-445 a.a.) (domain or fragment, UniProt Q8WY64 344-445, looked up)
chain: QSPSHSPLKSSESSMNCSSCEGLSCQQTRVLQEKLRKLKEAMLCMVCCEEEINSTFCPCGHTVCCESCAAQLQSCPVCRSRVEHVQHVYLPTHTSLLNLTVI
notes: MYLIP, RING domain, residues 344-445; Held on Glutathione Sepharose beads in the pull-down; pGEX4T1 vector); also called GST-RING; MYLIP RING; source: E. coli BL21 (DE3), purified (Glutathione Sepharose, eluted with 40 mM reduced glutathione); not shown: GST, N-terminal, kept
Does B1 bind?
Result: binds
